# PMC6215540, “Kinetic characterization of acetone monooxygenase from Gordonia sp. strain TY-5” (AMB Express, 2018)
# Legend:
# GSTACMO [1] = biological target: T1, GSTACMO (Gordonia sp. TY-5, UniProt A1IHE6); experiment: stopped-flow flavin reduction at […] nm, hyperbolic fit of kobs; assay type: biochemical; conditions: 50 mM HEPES pH 7.5, 20% glycerol, 25 °C, anaerobic; oxidized enzyme; text b56 prints 121; table labels it ACMO, done on GSTACMO; read-out: Measured values
# T1 construct: gene acmA; full-length with N-terminal GST tag kept (pGEX4T1), E. coli DH5alpha
# CC(=O)Cc1ccccc1 = experiment: purified protein; assay type: biochemical, Gordonia sp. TY-5; conditions: 100 µM NADPH, air-saturated 50 mM HEPES pH 7.5, 25 °C
# ACMO [2] = biological target: T2, ACMO (Gordonia sp. TY-5, UniProt A1IHE6); experiment: NADPH oxidation at […] nm, competitive inhibition fit; assay type: biochemical; conditions: read-out: Measured values
# T2 construct: gene acmA; full-length, codon-optimised gene in pGEX4T1, E. coli DH5alpha; N-terminal GST removed with thrombin; calculated mass 59,780 Da
# GSTACMO [3] = biological target: T3, GSTACMO (Gordonia sp. TY-5, UniProt A1IHE6, H325K); experiment: flavin absorbance titration at […] nm, quadratic fit; assay type: binding
# T3 construct: gene acmA; full-length with N-terminal GST tag kept (pGEX4T1), E. coli DH5alpha
# GSTACMO [4] = biological target: T1, GSTACMO; experiment: flavin absorbance titration at […] nm, quadratic fit; assay type: binding
# ACMO [5] = biological target: T4, ACMO (Gordonia sp. TY-5, UniProt A1IHE6, H325K); experiment: NADPH oxidation at […] nm, competitive inhibition fit; assay type: biochemical; conditions: read-out: Measured values
# T4 construct: gene acmA; full-length, codon-optimised gene in pGEX4T1, E. coli DH5alpha; N-terminal GST removed with thrombin; calculated mass 59,780 Da
# purified protein [6] = substrate: CCCCCC(C)=O; experiment: purified protein; assay type: biochemical, Gordonia sp. TY-5; conditions: 100 µM NADPH, air-saturated 50 mM HEPES pH 7.5, 25 °C
# purified protein [7] = substrate: CC(=O)C(C)C; experiment: purified protein; assay type: biochemical, Gordonia sp. TY-5; conditions: 100 µM NADPH, air-saturated 50 mM HEPES pH 7.5, 25 °C
# purified protein [8] = substrate: CC(C)=O; experiment: purified protein; assay type: biochemical, Gordonia sp. TY-5; conditions: 100 µM NADPH, air-saturated 50 mM HEPES pH 7.5, 25 °C
# purified protein [9] = substrate: O=C1CCCC1; experiment: purified protein; assay type: biochemical, Gordonia sp. TY-5; conditions: 100 µM NADPH, air-saturated 50 mM HEPES pH 7.5, 25 °C
# purified protein [10] = substrate: O=C1CC2C=CCC12; experiment: purified protein; assay type: biochemical, Gordonia sp. TY-5; conditions: 100 µM NADPH, air-saturated 50 mM HEPES pH 7.5, 25 °C
# purified protein [11] = substrate: NC(=O)C1=CN([C@@H]2O[C@H](COP(=O)(O)OP(=O)(O)OC[C@H]3O[C@@H](n4cnc5c(N)ncnc54)[C@H](OP(=O)(O)O)[C@@H]3O)[C@@H](O)[C@H]2O)C=CC1; experiment: purified protein; assay type: biochemical, Gordonia sp. TY-5; conditions: 200 μM butanone
# purified protein [12] = substrate: O=C1CCC1; experiment: purified protein; assay type: biochemical, Gordonia sp. TY-5; conditions: 100 µM NADPH, air-saturated 50 mM HEPES pH 7.5, 25 °C
# purified protein [13] = substrate: CC(C)C(=O)C(C)C; experiment: purified protein; assay type: biochemical, Gordonia sp. TY-5; conditions: 100 µM NADPH, air-saturated 50 mM HEPES pH 7.5, 25 °C
# purified protein [14] = substrate: CCCC(C)=O; experiment: purified protein; assay type: biochemical, Gordonia sp. TY-5; conditions: 100 µM NADPH, air-saturated 50 mM HEPES pH 7.5, 25 °C
# purified protein [15] = substrate: O=C1CCCCC1; experiment: purified protein; assay type: biochemical, Gordonia sp. TY-5; conditions: 100 µM NADPH, air-saturated 50 mM HEPES pH 7.5, 25 °C
# purified protein [16] = substrate: CCC(C)=O; experiment: purified protein; assay type: biochemical, Gordonia sp. TY-5; conditions: 100 µM NADPH
# [17] = air-saturated 50 mM HEPES pH 7.5, 25 °C
# [18] = 50 mM HEPES pH 7.5, 25 °C, GST tag state not told, table row identical to the butanone row, possible duplication
# [19] = 50 mM HEPES pH 7.5, 25 °C, GST tag state not told, table row identical to the NADPH row, possible duplication
molecule,measurement,setting,value
NC(=O)C1=CN([C@@H]2O[C@H](COP(=O)(O)OP(=O)(O)OC[C@H]3O[C@@H](n4cnc5c(N)ncnc54)[C@H](OP(=O)(O)O)[C@@H]3O)[C@@H](O)[C@H]2O)C=CC1 [NADPH],Kd,GSTACMO [1],120 ± 14 µM
ACMO (Gordonia sp. TY-5),Km,CC(=O)Cc1ccccc1,8.9 ± 1.5 µM
same,kcat,CC(=O)Cc1ccccc1,1 ± 0.1 s⁻¹
same,kcat/Km,CC(=O)Cc1ccccc1,112000 ± 20000 M⁻¹ s⁻¹
NC(=O)c1ccc[n+]([C@@H]2O[C@H](COP(=O)(O)OP(=O)(O)OC[C@H]3O[C@@H](n4cnc5c(N)ncnc54)[C@H](OP(=O)(O)O)[C@@H]3O)[C@@H](O)[C@H]2O)c1 [NADP^+],Ki,ACMO [2],166 ± 13 µM
same,Kd,GSTACMO [3],0.5 ± 0.04 µM
same,Kd,GSTACMO [4],21.1 ± 4.1 µM
same,Ki,ACMO [5],27 ± 6 µM
"ACMO (Gordonia sp. TY-5) (protein, full-length, codon-optimised gene in pGEX4T1, E. coli DH5alpha; N-terminal GST removed with thrombin; calculated mass 59,780 Da) MSTTTLDAAVIGTGVAGLYELHMLREQGLEVRAYDKASGVGGTWYWNRYPGARFDSEAYIYQYLFDEDLYKGWSWSQRFPGQEEIERWLNYVADSLDLRRDISLETEITSAVFDEDRNRWTLTTADGDTIDAQFLITCCGMLSAPMKDLFPGQSDFGGQLVHTARWPKEGIDFAGKRVGVIGNGATGIQVIQSIAADVDELKVFIRTPQYALPMKNPSYGPDEVAWYKSRFGELKDTLPHTFTGFEYDFTDAWEDLTPEQRRARLEDDYENGSLKLWLASFAEIFSDEQVSEEVSEFVREKMRARLVDPELCDLLIPSDYGFGTHRVPLETNYLEVYHRDNVTAVLVRDNPITRIRENGIELADGTVHELDVIIMATGFDAGTGALTRIDIRGRDGRTLADDWSRDIRTTMGLMVHGYPNMLTTAVPLAPSAALCNMTTCLQQQTEWISEAIRHLRATGKTVIEPTAEGEEAWVAHHDELADANLISKTNSWYVGSNVPGKPRRVLSYVGGVGAYRDATLEAAAAGYKGFALS",Km,purified protein [6],1.5 ± 0.1 µM
same,kcat,purified protein [6],3.9 ± 0.1 s⁻¹
same,kcat/Km,purified protein [6],2.6e+06 ± 130000 M⁻¹ s⁻¹
same,Km,purified protein [7],4.4 ± 0.5 µM
same,kcat,purified protein [7],2.2 ± 0.1 s⁻¹
same,kcat/Km,purified protein [7],510000 ± 55000 M⁻¹ s⁻¹
same,Km,purified protein [8],170 ± 11 µM
same,kcat,purified protein [8],1.4 ± 0.2 s⁻¹
same,kcat/Km,purified protein [8],8500 ± 590 M⁻¹ s⁻¹
same,Km,purified protein [9],120 ± 11 µM
same,kcat,purified protein [9],4.3 ± 0.1 s⁻¹
same,kcat/Km,purified protein [9],35000 ± 3200 M⁻¹ s⁻¹
same,Km,purified protein [10],6.7 ± 1.3 µM
same,kcat,purified protein [10],1.5 ± 0.1 s⁻¹
same,kcat/Km,purified protein [10],220000 ± 45000 M⁻¹ s⁻¹
same,Km,purified protein [11]; [17],6.7 ± 0.8 µM
same,kcat,purified protein [11]; [17],2 ± 0.1 s⁻¹
same,kcat/Km,purified protein [11]; [17],300000 ± 36000 M⁻¹ s⁻¹
same,Km,purified protein [12],1.5 ± 0.2 µM
same,kcat,purified protein [12],2 ± 0.1 s⁻¹
same,kcat/Km,purified protein [12],1.4e+06 ± 190000 M⁻¹ s⁻¹
same,Km,purified protein [13],1500 ± 220 µM
same,kcat,purified protein [13],1.5 ± 0.1 s⁻¹
same,kcat/Km,purified protein [13],1000 ± 150 M⁻¹ s⁻¹
same,Km,purified protein [14],0.37 ± 0.06 µM
same,kcat,purified protein [14],1.9 ± 0.1 s⁻¹
same,kcat/Km,purified protein [14],4.8e+06 ± 760000 M⁻¹ s⁻¹
same,Km,purified protein [15],2400 ± 400 µM
same,kcat,purified protein [15],3.6 ± 0.2 s⁻¹
same,kcat/Km,purified protein [15],1500 ± 300 M⁻¹ s⁻¹
same,Km,purified protein [16]; [17],0.34 ± 0.03 µM
same,kcat,purified protein [16]; [17],2.1 ± 0.1 s⁻¹
same,kcat/Km,purified protein [16]; [17],6e+06 ± 550000 M⁻¹ s⁻¹
"ACMO (Gordonia sp. TY-5; H325K) (protein, full-length, codon-optimised gene in pGEX4T1, E. coli DH5alpha; N-terminal GST removed with thrombin; calculated mass 59,780 Da) MSTTTLDAAVIGTGVAGLYELHMLREQGLEVRAYDKASGVGGTWYWNRYPGARFDSEAYIYQYLFDEDLYKGWSWSQRFPGQEEIERWLNYVADSLDLRRDISLETEITSAVFDEDRNRWTLTTADGDTIDAQFLITCCGMLSAPMKDLFPGQSDFGGQLVHTARWPKEGIDFAGKRVGVIGNGATGIQVIQSIAADVDELKVFIRTPQYALPMKNPSYGPDEVAWYKSRFGELKDTLPHTFTGFEYDFTDAWEDLTPEQRRARLEDDYENGSLKLWLASFAEIFSDEQVSEEVSEFVREKMRARLVDPELCDLLIPSDYGFGTKRVPLETNYLEVYHRDNVTAVLVRDNPITRIRENGIELADGTVHELDVIIMATGFDAGTGALTRIDIRGRDGRTLADDWSRDIRTTMGLMVHGYPNMLTTAVPLAPSAALCNMTTCLQQQTEWISEAIRHLRATGKTVIEPTAEGEEAWVAHHDELADANLISKTNSWYVGSNVPGKPRRVLSYVGGVGAYRDATLEAAAAGYKGFALS",Km,purified protein [11]; [18],0.48 ± 0.05 µM
same,kcat,purified protein [11]; [18],1.6 ± 0.1 s⁻¹
same,kcat/Km,purified protein [11]; [18],3.25e+06 ± 320000 M⁻¹ s⁻¹
same,Km,purified protein [16]; [19],0.48 ± 0.05 µM
same,kcat,purified protein [16]; [19],1.6 ± 0.1 s⁻¹
same,kcat/Km,purified protein [16]; [19],3.25e+06 ± 320000 M⁻¹ s⁻¹
"GSTACMO (Gordonia sp. TY-5) (protein, full-length with N-terminal GST tag kept (pGEX4T1), E. coli DH5alpha) MSTTTLDAAVIGTGVAGLYELHMLREQGLEVRAYDKASGVGGTWYWNRYPGARFDSEAYIYQYLFDEDLYKGWSWSQRFPGQEEIERWLNYVADSLDLRRDISLETEITSAVFDEDRNRWTLTTADGDTIDAQFLITCCGMLSAPMKDLFPGQSDFGGQLVHTARWPKEGIDFAGKRVGVIGNGATGIQVIQSIAADVDELKVFIRTPQYALPMKNPSYGPDEVAWYKSRFGELKDTLPHTFTGFEYDFTDAWEDLTPEQRRARLEDDYENGSLKLWLASFAEIFSDEQVSEEVSEFVREKMRARLVDPELCDLLIPSDYGFGTHRVPLETNYLEVYHRDNVTAVLVRDNPITRIRENGIELADGTVHELDVIIMATGFDAGTGALTRIDIRGRDGRTLADDWSRDIRTTMGLMVHGYPNMLTTAVPLAPSAALCNMTTCLQQQTEWISEAIRHLRATGKTVIEPTAEGEEAWVAHHDELADANLISKTNSWYVGSNVPGKPRRVLSYVGGVGAYRDATLEAAAAGYKGFALS",Km,purified protein [15],2300 ± 380 µM
same,kcat,purified protein [15],2.8 ± 0.1 s⁻¹
same,kcat/Km,purified protein [15],1200 ± 200 M⁻¹ s⁻¹
